# Values quoted from earlier work, collected in PMC7294537.
# pKd: −log10 of the molar value.
# How the values were obtained:
# [1] = target: CUE domain CUE (Saccharomyces cerevisiae) (UniProt P36075)
# lysozyme (Gallus gallus) = lysozyme (Gallus gallus) (UniProt P00698)
# CUE domain CUE (Saccharomyces cerevisiae), sequence (P36075 8-51): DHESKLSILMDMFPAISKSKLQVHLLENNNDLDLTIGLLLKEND
# ubiquitin, sequence (P0CG63 1-76): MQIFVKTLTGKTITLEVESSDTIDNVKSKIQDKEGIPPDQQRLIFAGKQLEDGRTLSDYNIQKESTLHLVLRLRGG
# lysozyme, sequence (P00698 19-147): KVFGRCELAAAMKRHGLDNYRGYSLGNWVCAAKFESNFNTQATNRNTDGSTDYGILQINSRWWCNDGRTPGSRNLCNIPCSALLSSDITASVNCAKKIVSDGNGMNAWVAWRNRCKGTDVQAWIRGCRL
pKd [1],pKd (lysozyme (Gallus gallus)),Substance
3.81,–,ubiquitin (from UniProt P0CG63)
–,2.57,lysozyme (from UniProt P00698)
